Results published in article PMC314469, “Protein Interaction Networks by Proteome Peptide Scanning” (PLoS Biology, 2004).

T1: Rvs167 SH3 (RV167_YEAST), P39743
T1 chain: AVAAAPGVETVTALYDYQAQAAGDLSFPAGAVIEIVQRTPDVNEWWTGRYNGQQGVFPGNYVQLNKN

T2: Boi2 SH3 (BOI2_YEAST), P39969
T2 chain: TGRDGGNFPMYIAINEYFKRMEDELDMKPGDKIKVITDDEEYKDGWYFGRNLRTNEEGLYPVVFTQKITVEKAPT

T3: Myo5 SH3 (MYO5_YEAST), Q04439
T3 chain: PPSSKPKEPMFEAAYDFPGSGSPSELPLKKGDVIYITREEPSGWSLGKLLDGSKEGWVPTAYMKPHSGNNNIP

T4: Yhr016c SH3 (YSC84_YEAST), P32793
T4 chain: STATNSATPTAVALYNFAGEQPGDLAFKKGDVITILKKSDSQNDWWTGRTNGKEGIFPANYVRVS

T5: Yfr024 SH3 (LSB3_YEAST), P43603
T5 chain: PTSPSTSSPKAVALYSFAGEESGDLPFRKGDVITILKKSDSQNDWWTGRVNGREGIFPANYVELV

T6: Boi1 SH3 (BOI1_YEAST), P38041
T6 chain: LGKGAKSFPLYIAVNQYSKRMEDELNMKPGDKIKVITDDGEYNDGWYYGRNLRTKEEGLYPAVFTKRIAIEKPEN


Tests used:
Test in all cases: SPOT array
[1] = molecular target: T1, Rvs167 SH3 (RV167_YEAST), P39743
[2] = molecular target: Sho1 SH3 (SHO1_YEAST), P40073
[3] = molecular target: T2, Boi2 SH3 (BOI2_YEAST), P39969
[4] = molecular target: T3, Myo5 SH3 (MYO5_YEAST), Q04439
[5] = molecular target: T4, Yhr016c SH3 (YSC84_YEAST), P32793
[6] = molecular target: T5, Yfr024 SH3 (LSB3_YEAST), P43603
[7] = molecular target: T6, Boi1 SH3 (BOI1_YEAST), P38041

Chain of Sho1 SH3 (SHO1_YEAST), P40073 (P40073 295-366): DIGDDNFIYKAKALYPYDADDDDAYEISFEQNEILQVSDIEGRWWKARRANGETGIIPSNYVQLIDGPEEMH

| normalised SPOT signal, Boehringer light units (BLU); mean over the file's lines of this peptide [1] | normalised SPOT signal, Boehringer light units (BLU); mean over the file's lines of this peptide [2] | normalised SPOT signal, Boehringer light units (BLU); mean over the file's lines of this peptide [3] | normalised SPOT signal, Boehringer light units (BLU); mean over the file's lines of this peptide [4] | normalised SPOT signal, Boehringer light units (BLU); mean over the file's lines of this peptide [5] | normalised SPOT signal, Boehringer light units (BLU); mean over the file's lines of this peptide [6] | normalised SPOT signal, Boehringer light units (BLU); mean over the file's lines of this peptide [7] | Binder |
| --- | --- | --- | --- | --- | --- | --- | --- |
| 175 | 25.9 | -0 | 43.8 | 14.9 | 166 | 136 | KEFFRLTPNQPVGL [YOR168W 628-641] |
| 127 | 359 | 20.2 | 155 | 42.3 | 120 | 201 | KFFKREYPDIPMIA [YMR190C 828-841] |
| 41.7 | 178 | 47.8 | 146 | 43 | 201 | 0 | KALWKIQPYLPEFS [YML130C 280-293] |
| 906 | 758 | 30.5 | 1140 | 2190 | 13400 | 1770 | KALPKRRPSPPLQS [YKR019C 209-222] |
| 206 | 33.5 | 3.2 | 366 | 17.5 | 267 | 235 | KIVRRDYPSTPVIV [YOR019W 147-160] |
| 176 | 1230 | 0.6 | 242 | 12.1 | 191 | 389 | KIIKKSSPSVPKEE [YNL265C 154-167] |
| 415 | 72.4 | 33.3 | 407 | 12.6 | 164 | 674 | KKHDKLHPNYPSVK [YPL019C 129-142] |
| 187 | 47.2 | 21 | 681 | 43.5 | 490 | 198 | KITKKLGPKLPKAS [YNL297C 1291-1304] |
| 63.7 | 42 | 53.8 | 143 | 59.1 | 0 | 76.6 | KDFSKNAPYNPSEV [YPR022C 111-124] |

The remaining lines, values behind:

| Binder | normalised SPOT signal, Boehringer light units (BLU); mean over the file's lines of this peptide [1] | normalised SPOT signal, Boehringer light units (BLU); mean over the file's lines of this peptide [2] | normalised SPOT signal, Boehringer light units (BLU); mean over the file's lines of this peptide [3] | normalised SPOT signal, Boehringer light units (BLU); mean over the file's lines of this peptide [4] | normalised SPOT signal, Boehringer light units (BLU); mean over the file's lines of this peptide [5] | normalised SPOT signal, Boehringer light units (BLU); mean over the file's lines of this peptide [6] | normalised SPOT signal, Boehringer light units (BLU); mean over the file's lines of this peptide [7] |
| --- | --- | --- | --- | --- | --- | --- | --- |
| KIVERGPPYPPDLR [YDR464W 649-662] | 102 | 14.8 | 4.7 | 138 | 20.3 | 93.1 | 74.9 |
| KDEVKLHPPEPKDL [YIL009W 251-264] | 32.3 | 50.6 | 2.4 | 164 | 18.9 | 0 | 102 |
| KKHDKLYPKYPSVK [YFL004W 130-143] | 61.3 | 114 | 16.5 | 340 | 37.6 | 184 | 435 |
| KDKARGNPEKPPYW [YJL036W 14-27] | 67.1 | 50.3 | 15.2 | 59.9 | 19.5 | 63.5 | 247 |
| KHEPKKSPTTPALA [YDL220C 702-715] | 30.5 | 21.3 | 36.2 | 726 | 26.8 | 19.7 | 442 |
| KGVLKEYPMRPYGS [YCR068W 315-328] | 38.3 | 78.4 | 14 | 117 | 134 | 1160 | 251 |
| KFDAKGRPIPPHPD [YJL042W 327-340] | 58.6 | 27.1 | 3.5 | 53.5 | 39.4 | 224 | 460 |
